T1: PfOAT (recombinant ornithine aminotransferase) (P. falciparum strain 3D7, UniProt Q6LFH8 1-414)
T1 construct: Ornithine aminotransferase, P. falciparum strain 3D7, Swiss-Prot Q6LFH8, PlasmoDB PFF0435w; gene amplified from a gametocyte cDNA library with primers from the start codon (NcoI) to the last codon (XhoI); Amine-coupled to a CM5 chip and oxidized on the chip with 0.5 mM DTNB before each analyte; source: E. coli BL 21 (pET28a), purified (Ni-NTA)
T1 sequence (looked up): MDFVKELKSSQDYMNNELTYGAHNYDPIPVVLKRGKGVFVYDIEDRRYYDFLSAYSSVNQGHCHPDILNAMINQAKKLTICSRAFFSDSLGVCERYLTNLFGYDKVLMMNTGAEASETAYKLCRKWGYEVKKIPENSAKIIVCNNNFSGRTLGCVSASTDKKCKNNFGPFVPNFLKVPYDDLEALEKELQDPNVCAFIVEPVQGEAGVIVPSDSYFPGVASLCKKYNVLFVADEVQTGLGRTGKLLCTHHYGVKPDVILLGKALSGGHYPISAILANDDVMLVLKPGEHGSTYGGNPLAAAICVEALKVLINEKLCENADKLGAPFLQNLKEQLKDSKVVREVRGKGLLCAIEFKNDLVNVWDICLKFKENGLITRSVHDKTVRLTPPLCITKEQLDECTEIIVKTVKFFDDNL


Tests used:
PfSAHH (recombinant …) = biological target: T2, PfSAHH (recombinant S-adenosyl-L-homocysteine hydrolase) (P. falciparum strain 3D7, UniProt P50250 1-479); experiment: SPR; BIAcore X; SAHH amine-coupled to CM5 chip, oxidized with 0.5 mM DTNB; analyte 10 µM in HBS buffer (10 mM HEPES, 150 mM NaCl, 3.4 mM EDTA, 0.005% Nonidet P-40, pH 7.4), 25°C, 10 µl/min; elution with 2 mM DTT; FC2-FC1; settings: both partners purified
T2 construct: S-adenosyl-L-homocysteine hydrolase, P. falciparum strain 3D7, Swiss-Prot Q7K6A6, PlasmoDB PFE1050w; gene amplified from a gametocyte cDNA library with primers from the start codon (NcoI) to the last codon (XhoI); Amine-coupled to a CM5 chip and oxidized on the chip with 0.5 mM DTNB before each analyte; also called oxidized SAHH; source: E. coli BL 21 (pET28a), purified (Ni-NTA)

[1] = biological target: T1, PfOAT (recombinant ornithine …); experiment: SPR; BIAcore X; OAT amine-coupled to CM5 chip, oxidized with 0.5 mM DTNB; analyte 10 µM in HBS buffer (10 mM HEPES, 150 mM NaCl, 3.4 mM EDTA, 0.005% Nonidet P-40, pH 7.4), 25°C, 10 µl/min; elution with 2 mM DTT; FC2-FC1; settings: both partners purified

T2 sequence (P50250 whole entry): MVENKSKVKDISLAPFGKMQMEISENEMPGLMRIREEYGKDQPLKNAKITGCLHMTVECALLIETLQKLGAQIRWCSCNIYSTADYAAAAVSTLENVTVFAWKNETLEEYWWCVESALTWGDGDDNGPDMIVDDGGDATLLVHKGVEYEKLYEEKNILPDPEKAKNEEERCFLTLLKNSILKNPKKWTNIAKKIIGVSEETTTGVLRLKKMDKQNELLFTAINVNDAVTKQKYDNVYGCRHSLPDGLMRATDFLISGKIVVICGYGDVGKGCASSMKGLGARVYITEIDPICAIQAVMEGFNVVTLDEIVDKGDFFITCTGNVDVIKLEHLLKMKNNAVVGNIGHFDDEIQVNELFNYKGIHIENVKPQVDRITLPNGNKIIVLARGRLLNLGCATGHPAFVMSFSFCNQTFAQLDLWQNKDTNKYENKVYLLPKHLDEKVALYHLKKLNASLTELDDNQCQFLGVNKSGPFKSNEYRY

| Binder | binding result (PfSAHH (recombinant …)) | binding result [1] |
| --- | --- | --- |
| PfTrx1^C33S (natural protein, Thioredoxin 1 (PfTrx1), P. falciparum, PlasmoDB PF14_0545; Lacks the resolving cysteine; traps targets as a mixed disulfide through Cys 30; also called Trx^C33S; TrxC33S; source: E. coli M15 (pQE30), purified (Ni-NTA)) MVKIVTSQAEFDSIISQNELVIVDFFAEWCGPSKRIAPFYEECSKTYTKMVFIKVDVDEVSEVTEKENITSMPTFKVYKNGSSVDTLLGANDSALKQLIEKYAA | binds | binds |
| Plrx (wild type plasmoredoxin, recombinant) (natural protein, P. falciparum, UniProt Q8I224 1-179, looked up, Plasmoredoxin (Plrx), P. falciparum, Swiss-Prot Q8I224, PlasmoDB PFC0166w; also called wild type Plrx; PfPlrx; source: E. coli M15 (pQE30), purified (Ni-NTA)) MACQVDNPPKTYPNDKTAEYEKYANYMNYLYYYQNNELKKIDSSYFKDKYLGLFFGASWCKYCVTFIDSLNIFKKNFPNVEIIYIPFDRTYQEYQSFLKNTNFYALPFDNYLYICKKYQIKNLPSFMLITPNNNILVKDAAQLIKTDEYINNLKSLIKNYIIHPKTFQFNNRFFDLFRN | binds |  |

— PMC2660430, “Identification of Proteins Targeted by the Thioredoxin Superfamily in Plasmodium falciparum” (PLoS Pathogens, 2009)
